The text below walks through data of US20230287087A1 (MAX PLANCK GESELLSCHAFT ZUR F RDERUNG DER WISSENSCHAFTEN E V, published 2023).

Several values for one entry are separate records, joined by “and”; a condition that tells them apart may be missing. Equal entries are not always repeated. Where only a bound is given, the exact number is not on record here.

Assay [1] deals with T1, Spike protein of patient-derived SARS-CoV-2 (D614G) (SARS-CoV-2, UniProt P0DTC2 14-1273). In words: cell-based or functional assay.
The target in assay [2] is Californian RBD mutant (L452R) (SARS-CoV-2, UniProt P0DTC2 319-541). Nature of the assay: method not stated.
Assay [3] concerns the target T2, B.1.617.2/Delta RBD (40592-V08H90, Sino Biologicals) (SARS-CoV-2, UniProt P0DTC2 319-541). Nature of the assay: BLI, biotinylated VHH on streptavidin sensor, RBD in solution.
In assay [4] the target is T3, SARS-CoV-2 spike receptor-binding domain (RBD), wild type (SARS-CoV-2, UniProt P0DTC2 319-541). The assay is described as above.
Assay [5] concerns the target T1, Spike protein of patient-derived …. In words: cell-based or functional assay. This is another data set of the same source.
Assay [6] addresses T2, B.1.617.2/Delta RBD (40592-V08H90, Sino …). Nature of the assay: BLI, biotinylated VHH heterodimer on streptavidin sensor, RBD in solution.
The target in assay [7] is T3, SARS-CoV-2 spike receptor-binding …. The assay is described as above.
Assay [8] addresses quadruple (K417T, L452R, E484K, N501Y) RBD mutant (SARS-CoV-2, UniProt P0DTC2 319-541). Nature of the assay: method not stated.
For assay [9], the target named is T3, SARS-CoV-2 spike receptor-binding …. In words: method not stated.
For assay [10], the target named is T1, Spike protein of patient-derived …. In words: cell-based or functional assay. The source holds these as a separate data set.

B1: Re10B10 (VHH)
VHH: QVQLVESGGGLVQPGGSLRLSCAASGFTLDYYAIGWFRQAPGKEREGVSRIRSSDGSTTYADSVKGRFTISRDNAKNTVYLQMNSLKPEDTAVYYCAYGPLTKYGSSWYWPYEYDYWGQGTQVTVSS
B1: the “Lowest SARS-COV-2-neutralizing concentration” value in [1] was found to be 50 pM.

B2: Re5D06 (VHH)
VHH: QVQLVESGGGLVQPGGSLRLSCAASGITLDYYAIGWFRQAPGKEREGVSRIRSSDGSTNYADSVKGRFTMSRDNAKNTVYLQMNSLKPEDTAVYYCAYGPLTKYGSSWYWPYEYDYWGQGTQVTVSS
On to B2, for which, in assay [2], the dissociation constant (Kd) is about 0.4 nM.

B3: Re6B02 (VHH)
VHH: QVQLVESGGALVQPGGSLRLSCVASGFTLDYYAIGWFRQAPGKEREGVSRIRSSDGSTNYADSVKGRFTISRDNAKNTVYLQMNSLKPEDTAVYYCAYGPLTKYGSSWYWPYEYDYWGQGTQVTVSS
Turning to B3, the “Lowest SARS-COV-2-neutralizing concentration” value in assay [1] was found to be 50 pM.

B4: Re7B01 (VHH)
VHH: QVQLVESGGGLVQPGGSLRLSCGASGFTLDYYAIGWFRQAPGKEREGVSRIRSNDGSTDYADSVKGRFTISRDNAKNTVYLQMNSLKPEDTAVYYCAYGPLTKYGSSWYWPYEYDYWGQGTQVTVSS
Consider B4, for which the “Lowest SARS-COV-2-neutralizing concentration” value in [1] was 50 pM.

B5: Re10F10 (VHH)
VHH: QVQLVESGGGLVQPGGSLRLSCAASGFTLDYYAIGWFRQAPGKEREGVSRIRNNDGSTDYADSVKGRFTISRDNAKNTVYLQMNSLKPEDTAVYYCAYGPLTKYGSSWYWPYEYDYWGQGTQVTVSS
As to B5, the “Lowest SARS-COV-2-neutralizing concentration” value in assay [1] is 50 pM.

B6: Re5D06R15 (VHH)
VHH: QVQLVESGGGLVQPGGSLRLSCAASGITLDYYAMGWFREAPGKEREGVARIRNSDGSTNYADSVKGRFTMSRDNAKDTYYLQMNSLEPEDTADYYCAYGPLTKYGSSWYWPYEYDYWGQGTQVTVSS
As to B6, the results for the dissociation constant Kd in assay [3] and in assay [4] were 0.03 nM and at most 0.01 nM, respectively.

B7: Re5D06R28 (VHH)
VHH: QVQLVESGGGLVQPGGSLRLSCAISGSTLDYYAMGWFREAPGKEREGVARWRNNDGSTNYADSVKGRFTMSRDNAKDTYYLQMNSLEPEDTADYYCAYGPLTKYGSSWHWPYEYDYWGQGTQVTVSS
Consider B7, for which the Kd in assay [3] is 0.08 nM; in [4] it was at most 0.01 nM.

B8: Re6D06 (VHH)
VHH: QVQLVESGGGLVQAGASLRLSCAASGRMFGVYRMGWFRQAPGKEREFVAGISTSVGTTNYADSVKGRFTISRDNAKNTVYLQMNSLKPEDTAVYYCAARDPTTYEYDYWGQGTQVTVSS
With B8, in [5], the “Lowest neutralizing VHH concentration” value was 1700 pM and 25 µg/liter. Moreover, the “Lowest SARS-COV-2-neutralizing concentration” value in [1] came to 500 pM.

B9: Re9B10 (VHH)
VHH: QVQLVESGGGLVQPGGSLRLSCAASGRMFGVYRMGWFRQAPGKEREFVAGISTSVGTTNYADSVKGRFTISRDNAKNTVYLQMNSLKPEDTAVYYCAARDPTTYEYDYWGQGTQVTVSS
With B9, the “Lowest SARS-COV-2-neutralizing concentration” value in assay [1] was determined as 500 pM.

B10: Re7E02 (VHH)
VHH: QVQLVESGGGLVQAGGSLRLSCAASGFTLDYYAIGWFRQAPGKEREGVSYIRSSDGTTYYADSVKGRFTISRDNAKNTVYLQMNSLKPEDTAVYYCAADEAYYSELGWESPWGWSYWGQGTQVTVSS
In the case of B10, the “Lowest SARS-COV-2-neutralizing concentration” value in assay [1] is 500 pM.

B11: Re9F06-SpacerA-Re9B09 (bispecific antibody)
chain: GSQVQLVESGGGLVQAGGSLRLSCAASGRTFSNDALGWFRQAPRKEREFVAAINWNSGTYYADSVKGRFTISRDNAKNTVYLQMNSLKPEDTAVYSCAAASDYGLPREDFLYDYWGQGTQVTVSSTSGEGEGGEGGEGSQVQLVESGGGLVQPGGSLRLSCAASGFTLDYYAIGWFRQAPGKEREGVSRISSSDGSTDYADSVKGRFTISRDNAKNTVYLQMNSLKPEDTAVYYCATVPGTYYSGNWYYTWHPEAVDYWGKGTQVTVSSTS
As to B11, the dissociation constant (Kd) in assay [6] and in assay [7] was at most 0.01 nM each time.

B12: Re5F10 (VHH)
VHH: QVQLVESGGGLVQPGGSLRLSCVASGFTFSSFAMGWYRQAPGKECEWVATITITGGSTNYADSVKGRFTISRDNAKNTVYLQMNSLKPEDTAVYYCNPDPGCRRGQGTQVTVSS
Turning to B12, the Kd amounted to 0.04 nM in assay [3], 0.04 nM in [4], 0.03 nM in [8] and 0.03 nM in assay [9]. Also, in assay [1], the “Lowest SARS-COV-2-neutralizing concentration” value is 1700 pM.

B13: Re9H01 (VHH)
VHH: QVQLVESGGGLVQAGDSLRLSCAASGNIFSINAMGWYRQAPGKQRELVAFITSRGSTNYTDSVKGRFTISRDTAKDTVYLQMNSLKPEDTAVYFCRGGYSDYDIYFGSWGQGTQVTVSS
As to B13, the “Lowest SARS-COV-2-neutralizing concentration” value in [1] amounted to 170 pM.

B14: Re6B06 (VHH)
VHH: QVQLVESGGGLVQAGGSLRLSCAASGRAFSSAPMSWFRQAPGKEREFVASVSWSGDSTNYADSVKGRFTISRDNAKNTGYLQMNSLKPEDTAVYYCKRGPYWGQGTQVTVSS
Consider B14, for which the “Lowest neutralizing VHH concentration” value in [5] is 50000 pM and 750 µg/liter. Moreover, in assay [10], the “viral RNA in supernatants of infected cells (qRT-PCR), fold inhibition” value is about 300 fold. The “Lowest SARS-COV-2-neutralizing concentration” value in assay [1] worked out at 170000 pM.

B15: Re7H02 (VHH)
VHH: QVQLVESGGGLVQAGGSLRLSCAASGRAFESAPMSWFRQAPGKEREFVASVSWSGDSTNYADSVKGRFTISRDNAENTGYLQMNSLKPEDTAVYYCKRGPYWGQGTQVTVSS
With B15, the “Lowest neutralizing VHH concentration” value in assay [5] is 17000 pM and 250 µg/liter. For the same molecule, the “Lowest SARS-COV-2-neutralizing concentration” value in assay [1] was determined as 17000 pM.

B16: Re6A11 (VHH)
VHH: QVQLVESGGGLVQAGGSLRLSCAASGRTFSNDALGWFRQAPRKEREFVAAINWNSGTYYADSVKGRFTISRDNAKNTVYLQMNSLKPEDTAVYSCAAASDYGLPREDFLYDYWGQGTLVTVSS
For B16, the “Lowest neutralizing VHH concentration” value in assay [5] was 50000 pM and 750 µg/liter.

B17: Re6A11/Re9F06 ColXVIII trimer (VHH)
VHH: QVQLVESGGGLVQAGGSLRLSCAASGRTFSNDALGWFRQAPRKEREFVAAINWNSGTYYADSVKGRFTISRDNAKNTVYLQMNSLKPEDTAVYSCAAASDYGLPREDFLYDYWGQGTLVTVSS
Turning to B17, the “Lowest neutralizing VHH concentration” value in assay [5] was 170 pM and 4 µg/liter.

B18: Re9F06 (VHH)
VHH: QVQLVESGGGLVQAGGSLRLSCAASGRTFSNDALGWFRQAPRKEREFVAAINWNSGTYYADSVKGRFTISRDNAKNTVYLQMNSLKPEDTAVYSCAAASDYGLPREDFLYDYWGQGTQVTVSS
With B18, the “Lowest SARS-COV-2-neutralizing concentration” value in assay [1] came out at 50000 pM.

B19: Re9F06-SpacerA-Re5D06R28D (bispecific antibody)
chain: GSQVQLVESGGGLVQAGGSLRLSCAASGRTFSNDALGWFRQAPRKEREFVAAINWNSGTYYADSVKGRFTISRDNAKNTVYLQMNSLKPEDTAVYSCAAASDYGLPREDFLYDYWGQGTQVTVSSTSGEGEGGEGGEGSQVQLVESGGGLVQPGGSLRLSCAISGSTLDYYAMGWFREAPGKEREGVARWRNNDGSTNYADSVKGRFTMSRDNAKDTYYLQMNSLEPEDTADYYCAYGPLTKYGDEWHWPYEYDYWGQGTQVTVSSTS
Consider B19, for which the Kd in [6] and in assay [7] was at most 0.01 nM in each case.

B20: Re5A08 (VHH)
VHH: QVQLVESGGGLVQAGGSLRLSCTASGHTFTANRMGWFRQAPGKEREFVAAINWGGDSTNYVDSVKGRFTISRDIAKNTVYLQMNSLKPEDTAVYFCAARNHVTGEFDSWGQGTQVTVSS
For the molecule B20, the “Lowest neutralizing VHH concentration” value in assay [5] is 5000 pM and 75 µg/liter.

B21: Re9B09 (VHH)
VHH: QVQLVESGGGLVQPGGSLRLSCAASGFTLDYYAIGWFRQAPGKEREGVSRISSSDGSTDYADSVKGRFTISRDNAKNTVYLQMNSLKPEDTAVYYCATVPGTYYSGNWYYTWHPEAVDYWGKGTQVTVSS
Take B21: the results for the Kd in [3] and in assay [4] were 0.1 nM and at most 0.01 nM, respectively. In addition, the “Lowest SARS-COV-2-neutralizing concentration” value in assay [1] is 170 pM.

B22: Re9H03 (VHH)
VHH: QVQLVESGGGLVQPGGSLRLSCAASGFTLDYYAIGWFRQAPGKEREGVSRISSSDGSTDYADSVKGRFTISRDNAKNTVYLQMNSLKPEDTAVYYCATVPGTYYSGNWYYTWHPKAVDYWGKGTLVTVSS
On to B22, for which, in [1], the “Lowest SARS-COV-2-neutralizing concentration” value came to 170 pM. The “fold better binding than Re9B09” value in assay [8] amounted to 100 fold.

B23: Re9C08 (VHH)
VHH: QVQLVESGGGLVQPGGSLRLSCAVSGNIFGITAWDWHRQAPGKQRELVAHITSRGDTYYLDSVKGRFAISRDHAKNTLSLQMNSLKPEDTAVYYCYLRTFGPPNDHWGQGTQVTVSS
As to B23, the “Lowest SARS-COV-2-neutralizing concentration” value in [1] was determined as 500 pM.
